Assay results: paper PMC4893494, “Identification and Characterization of Five BAHD Acyltransferases Involved in Hydroxycinnamoyl Ester Metabolism in Chicory” (Frontiers in Plant Science, 2016)

Tested on: O=C(O)C1=C[C@@H](O)[C@@H](O)[C@H](O)C1
Experiment: HPLC-UV of product, Michaelis-Menten
Type: biochemical, Cichorium intybus
Settings: acyl acceptor varied, saturating p-coumaroyl-CoA (800 μM), 50 mM phosphate pH 7.1, room temperature
From the text: HPLC-UV of product, Michaelis-Menten on HCT2 (CiHCT2)

## HCT2 (CiHCT2) (Cichorium intybus)
  Km: 802 ± 63 µM
  Vmax: 18.2 µmol/min/mg
  Vmax/Km: 22800 µL/min/mg
